# Source: the Human Domainome abundance scans (Beltran et al. 2025)
# ± gives the uncertainty stated by the source.
# B1: POU domain, class 4, transcription factor 1, residues 266 to 347; numbered along this chain, Q01851 (parent)
# chain: RELEAFAERFKQRRIKLGVTQADVGSALANLKIPGVGSLSQSTICRFESLTLSHNNMIALKPILQAWLEEAEGAQREKMNKP
# Variants of: B1
# Experiment: abundance fitness (aPCA) (normalised: wild type 0, dead -1); higher = more abundant; growth selection in yeast, the domain comes from the species named
# Conditions: Homo sapiens
row,Variant,abundance fitness
1,RPLEAFAERFKQRRIKLGVTQADVGSALANLKIPGVGSLSQSTICRFESLTLSHNNMIALKPILQAWLEEAEGAQREKMNKP,-0.437 ± 0.04
2,RQLEAFAERFKQRRIKLGVTQADVGSALANLKIPGVGSLSQSTICRFESLTLSHNNMIALKPILQAWLEEAEGAQREKMNKP,-0.16 ± 0.033
3,RRLEAFAERFKQRRIKLGVTQADVGSALANLKIPGVGSLSQSTICRFESLTLSHNNMIALKPILQAWLEEAEGAQREKMNKP,-0.266 ± 0.026
4,RSLEAFAERFKQRRIKLGVTQADVGSALANLKIPGVGSLSQSTICRFESLTLSHNNMIALKPILQAWLEEAEGAQREKMNKP,-0.139 ± 0.03
5,RTLEAFAERFKQRRIKLGVTQADVGSALANLKIPGVGSLSQSTICRFESLTLSHNNMIALKPILQAWLEEAEGAQREKMNKP,-0.195 ± 0.039
6,RVLEAFAERFKQRRIKLGVTQADVGSALANLKIPGVGSLSQSTICRFESLTLSHNNMIALKPILQAWLEEAEGAQREKMNKP,-0.345 ± 0.029
7,RWLEAFAERFKQRRIKLGVTQADVGSALANLKIPGVGSLSQSTICRFESLTLSHNNMIALKPILQAWLEEAEGAQREKMNKP,-0.508 ± 0.038
8,RYLEAFAERFKQRRIKLGVTQADVGSALANLKIPGVGSLSQSTICRFESLTLSHNNMIALKPILQAWLEEAEGAQREKMNKP,-0.236 ± 0.055
9,REAEAFAERFKQRRIKLGVTQADVGSALANLKIPGVGSLSQSTICRFESLTLSHNNMIALKPILQAWLEEAEGAQREKMNKP,-0.162 ± 0.042
10,RECEAFAERFKQRRIKLGVTQADVGSALANLKIPGVGSLSQSTICRFESLTLSHNNMIALKPILQAWLEEAEGAQREKMNKP,-0.901 ± 0.22
11,REDEAFAERFKQRRIKLGVTQADVGSALANLKIPGVGSLSQSTICRFESLTLSHNNMIALKPILQAWLEEAEGAQREKMNKP,-0.366 ± 0.099
12,REEEAFAERFKQRRIKLGVTQADVGSALANLKIPGVGSLSQSTICRFESLTLSHNNMIALKPILQAWLEEAEGAQREKMNKP,-0.247 ± 0.043
13,REFEAFAERFKQRRIKLGVTQADVGSALANLKIPGVGSLSQSTICRFESLTLSHNNMIALKPILQAWLEEAEGAQREKMNKP,-0.103 ± 0.065
14,REGEAFAERFKQRRIKLGVTQADVGSALANLKIPGVGSLSQSTICRFESLTLSHNNMIALKPILQAWLEEAEGAQREKMNKP,-0.523 ± 0.04
15,REHEAFAERFKQRRIKLGVTQADVGSALANLKIPGVGSLSQSTICRFESLTLSHNNMIALKPILQAWLEEAEGAQREKMNKP,-0.203 ± 0.12
16,REIEAFAERFKQRRIKLGVTQADVGSALANLKIPGVGSLSQSTICRFESLTLSHNNMIALKPILQAWLEEAEGAQREKMNKP,-0.02 ± 0.1
17,REKEAFAERFKQRRIKLGVTQADVGSALANLKIPGVGSLSQSTICRFESLTLSHNNMIALKPILQAWLEEAEGAQREKMNKP,-0.564 ± 0.094

row,Variant,abundance fitness
1,REMEAFAERFKQRRIKLGVTQADVGSALANLKIPGVGSLSQSTICRFESLTLSHNNMIALKPILQAWLEEAEGAQREKMNKP,-0.029 ± 0.048
2,RENEAFAERFKQRRIKLGVTQADVGSALANLKIPGVGSLSQSTICRFESLTLSHNNMIALKPILQAWLEEAEGAQREKMNKP,-0.287 ± 0.12
3,REQEAFAERFKQRRIKLGVTQADVGSALANLKIPGVGSLSQSTICRFESLTLSHNNMIALKPILQAWLEEAEGAQREKMNKP,-0.262 ± 0.052
4,REREAFAERFKQRRIKLGVTQADVGSALANLKIPGVGSLSQSTICRFESLTLSHNNMIALKPILQAWLEEAEGAQREKMNKP,-0.622 ± 0.046
5,RESEAFAERFKQRRIKLGVTQADVGSALANLKIPGVGSLSQSTICRFESLTLSHNNMIALKPILQAWLEEAEGAQREKMNKP,-0.374 ± 0.052
6,RETEAFAERFKQRRIKLGVTQADVGSALANLKIPGVGSLSQSTICRFESLTLSHNNMIALKPILQAWLEEAEGAQREKMNKP,-0.26 ± 0.057
7,REVEAFAERFKQRRIKLGVTQADVGSALANLKIPGVGSLSQSTICRFESLTLSHNNMIALKPILQAWLEEAEGAQREKMNKP,-0.053 ± 0.038
8,REWEAFAERFKQRRIKLGVTQADVGSALANLKIPGVGSLSQSTICRFESLTLSHNNMIALKPILQAWLEEAEGAQREKMNKP,-0.352 ± 0.044
9,REYEAFAERFKQRRIKLGVTQADVGSALANLKIPGVGSLSQSTICRFESLTLSHNNMIALKPILQAWLEEAEGAQREKMNKP,-0.107 ± 0.084
10,RELAAFAERFKQRRIKLGVTQADVGSALANLKIPGVGSLSQSTICRFESLTLSHNNMIALKPILQAWLEEAEGAQREKMNKP,-0.071 ± 0.048
11,RELCAFAERFKQRRIKLGVTQADVGSALANLKIPGVGSLSQSTICRFESLTLSHNNMIALKPILQAWLEEAEGAQREKMNKP,-0.149 ± 0.079
12,RELDAFAERFKQRRIKLGVTQADVGSALANLKIPGVGSLSQSTICRFESLTLSHNNMIALKPILQAWLEEAEGAQREKMNKP,-0.031 ± 0.059
13,RELFAFAERFKQRRIKLGVTQADVGSALANLKIPGVGSLSQSTICRFESLTLSHNNMIALKPILQAWLEEAEGAQREKMNKP,-0.054 ± 0.08
14,RELGAFAERFKQRRIKLGVTQADVGSALANLKIPGVGSLSQSTICRFESLTLSHNNMIALKPILQAWLEEAEGAQREKMNKP,-0.166 ± 0.034
15,RELHAFAERFKQRRIKLGVTQADVGSALANLKIPGVGSLSQSTICRFESLTLSHNNMIALKPILQAWLEEAEGAQREKMNKP,0.108 ± 0.079
16,RELIAFAERFKQRRIKLGVTQADVGSALANLKIPGVGSLSQSTICRFESLTLSHNNMIALKPILQAWLEEAEGAQREKMNKP,0.107 ± 0.08
17,RELKAFAERFKQRRIKLGVTQADVGSALANLKIPGVGSLSQSTICRFESLTLSHNNMIALKPILQAWLEEAEGAQREKMNKP,0.056 ± 0.063
